Reference: patent publication US20210087295A1 (University of Pennsylvania, published 2021)

Assays:
[1] = target: T1, murine fibroblast activation protein (FAP) (mouse, UniProt P97321 1-761); assay: flow cytometry, hybridoma supernatant on BALB/c 3T3 cells with a murine FAP transgene
T1 construct: whole, on cells; also called mouse FAP; muFAP
T1 sequence (looked up): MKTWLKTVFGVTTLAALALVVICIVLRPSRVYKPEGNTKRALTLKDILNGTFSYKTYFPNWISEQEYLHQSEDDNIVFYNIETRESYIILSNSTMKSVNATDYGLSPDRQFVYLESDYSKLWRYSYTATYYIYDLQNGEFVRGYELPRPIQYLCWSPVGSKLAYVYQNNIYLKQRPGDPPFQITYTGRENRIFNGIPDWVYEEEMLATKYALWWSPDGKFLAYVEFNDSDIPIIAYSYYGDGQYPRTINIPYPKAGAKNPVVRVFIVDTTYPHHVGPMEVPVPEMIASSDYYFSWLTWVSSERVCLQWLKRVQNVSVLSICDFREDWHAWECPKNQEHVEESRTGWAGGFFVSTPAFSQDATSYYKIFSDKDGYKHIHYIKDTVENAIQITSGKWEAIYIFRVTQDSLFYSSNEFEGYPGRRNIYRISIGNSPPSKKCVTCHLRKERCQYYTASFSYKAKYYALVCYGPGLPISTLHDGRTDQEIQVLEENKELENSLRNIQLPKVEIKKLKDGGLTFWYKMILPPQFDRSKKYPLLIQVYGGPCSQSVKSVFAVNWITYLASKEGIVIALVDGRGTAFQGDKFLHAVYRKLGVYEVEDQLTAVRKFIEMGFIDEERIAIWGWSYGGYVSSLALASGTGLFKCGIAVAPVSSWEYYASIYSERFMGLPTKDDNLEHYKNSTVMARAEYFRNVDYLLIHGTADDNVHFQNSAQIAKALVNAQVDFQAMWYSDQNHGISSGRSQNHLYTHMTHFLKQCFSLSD
Description: (§1) BALB/c 3T3 cells expressing full-length canine FAP were used to immunize 14 week old BALB/c.FAP^{-/-} mice. All injections were given intraperitoneally and consisted of 1×10⁷ cells in 0.5 ml sterile PBS. An initial immunization was followed by boosts on days 14 and 28; animals were then bled on day 42 followed a boost on day 56, bleeding on day 63, and three more boosts on days 70, 217, and 238. On day 241, […] spleens were harvested, a single cell suspension prepared, and splenocytes fused with sp2/0 cells by the UPENN Hybridoma Core Facility. Hybridoma supernatant were initially screened by FACS on MC KOSA parental (FAP null) vs. canine FAP-transgene expressing MC KOSA.K9FAP using hybridoma supernatants as the primary antibodies and AF488 goat anti-mouse IgG as a secondary. Clone 4G5 was identified as reactive to transduced cells but not parental cells and screened on additional cells to confirm reactivity with FAP expressing but not FAP-negative cells: Human primary fibroblasts, BALB/c 3T3 expressing murine or human FAP transgenes, canine primary fibroblasts, SK KOSA (FAP expressing), and BALB/c 3T3 (FAP negative) cells. 4G5 was then determined to be an IgG1k isotype antibody using Thermo Fisher Rapid ELISA Mouse mAb Isotyping Kit #37503.
(§2) BALB/c 3T3 fibroblast cells transduced to express full-length canine FAP were used to immunize 14 week old BALB/c FAP^{-/-} mice. […]

[2] = target: T2, human fibroblast activation protein (FAP) (human, UniProt Q12884 1-760); assay: flow cytometry, hybridoma supernatant on human primary fibroblasts and BALB/c 3T3 cells with a human FAP transgene
T2 construct: whole, on cells; also called human FAP; huFAP
T2 sequence (looked up): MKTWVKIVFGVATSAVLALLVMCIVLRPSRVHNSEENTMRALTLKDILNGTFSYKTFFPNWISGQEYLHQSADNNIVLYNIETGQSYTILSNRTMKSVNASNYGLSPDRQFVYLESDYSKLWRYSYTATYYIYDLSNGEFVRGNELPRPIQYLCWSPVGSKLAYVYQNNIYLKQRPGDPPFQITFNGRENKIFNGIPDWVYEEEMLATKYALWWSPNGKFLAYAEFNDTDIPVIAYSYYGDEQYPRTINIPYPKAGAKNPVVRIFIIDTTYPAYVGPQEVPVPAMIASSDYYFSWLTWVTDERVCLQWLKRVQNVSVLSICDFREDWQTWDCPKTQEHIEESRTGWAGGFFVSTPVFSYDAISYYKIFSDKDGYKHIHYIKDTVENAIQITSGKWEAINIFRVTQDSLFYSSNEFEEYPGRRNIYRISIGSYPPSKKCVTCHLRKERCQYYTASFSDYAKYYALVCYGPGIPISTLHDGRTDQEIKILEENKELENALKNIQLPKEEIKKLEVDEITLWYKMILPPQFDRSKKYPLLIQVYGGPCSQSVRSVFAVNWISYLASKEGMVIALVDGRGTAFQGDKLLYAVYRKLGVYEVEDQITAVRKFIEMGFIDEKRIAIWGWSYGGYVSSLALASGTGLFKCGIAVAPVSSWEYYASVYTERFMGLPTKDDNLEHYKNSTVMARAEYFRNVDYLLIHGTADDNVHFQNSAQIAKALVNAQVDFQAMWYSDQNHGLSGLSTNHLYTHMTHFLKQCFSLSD
Description: as §1, §2

B1: clone 4G5 anti-FAP antibody (antibody, mouse IgG1, V domains shown)
VH: QVQLQQPGAELVKPGASVKLSCKASGYTITSYSLHWVKQRPGQGLEWIGEINPANGDHNFSEKFEIKATLTVDSSSNTAFMQLSRLTSEDSAVYYCTRLDDSRFHWYFDVWGAGTTVTVSS
VL: QIVLTQSPALMSASPGEKVTMTCTASSSVSYMYWYQQKPRSSPKPWIFLTSNLASGVPARFSGRGSGTSFSLTISSMEAEDAATYYCQQWSGYPPITFGSGTKLEIK
notes: Mouse IgG1 kappa antibody from a hybridoma, used as hybridoma supernatant in flow cytometry; also called 4G5 immunoglobulin; monoclonal 4G5 antibody
binding result [1]: binds | binding result [2]: binds
